Measured values as given in US20260234242A1 (HAINAN SIMCERE ZAIMING PHARMACEUTICAL, published 2026).

T1: human CDH6 on tumor cells (OVCAR3 cells, PA-1 cells) (human, UniProt P55285 54-790)
T1 sequence: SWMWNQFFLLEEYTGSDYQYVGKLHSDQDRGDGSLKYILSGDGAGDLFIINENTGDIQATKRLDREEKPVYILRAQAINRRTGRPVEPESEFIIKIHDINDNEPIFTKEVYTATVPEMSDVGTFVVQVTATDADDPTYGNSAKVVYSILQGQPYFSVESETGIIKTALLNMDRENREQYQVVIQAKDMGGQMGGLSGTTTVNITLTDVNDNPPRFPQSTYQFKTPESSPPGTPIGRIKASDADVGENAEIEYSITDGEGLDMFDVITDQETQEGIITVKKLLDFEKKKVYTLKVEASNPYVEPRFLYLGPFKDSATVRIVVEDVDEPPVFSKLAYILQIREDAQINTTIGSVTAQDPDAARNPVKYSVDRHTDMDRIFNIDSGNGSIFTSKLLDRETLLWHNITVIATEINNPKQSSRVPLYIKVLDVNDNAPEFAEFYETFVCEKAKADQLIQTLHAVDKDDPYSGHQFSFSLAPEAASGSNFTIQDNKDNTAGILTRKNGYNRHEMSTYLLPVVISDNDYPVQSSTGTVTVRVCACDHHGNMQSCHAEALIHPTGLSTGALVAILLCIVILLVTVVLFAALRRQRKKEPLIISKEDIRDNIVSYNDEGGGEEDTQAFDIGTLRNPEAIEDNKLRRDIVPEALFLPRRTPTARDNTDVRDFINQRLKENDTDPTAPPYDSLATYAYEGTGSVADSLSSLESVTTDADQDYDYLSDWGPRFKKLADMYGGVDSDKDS

T2: human CDH6 with EC1 removed, on HEK293T cells (HEK293T-hCDH6-EC1 deletion) (human, UniProt P55285 160-790)
T2 construct: Signal peptide not removed here
T2 sequence: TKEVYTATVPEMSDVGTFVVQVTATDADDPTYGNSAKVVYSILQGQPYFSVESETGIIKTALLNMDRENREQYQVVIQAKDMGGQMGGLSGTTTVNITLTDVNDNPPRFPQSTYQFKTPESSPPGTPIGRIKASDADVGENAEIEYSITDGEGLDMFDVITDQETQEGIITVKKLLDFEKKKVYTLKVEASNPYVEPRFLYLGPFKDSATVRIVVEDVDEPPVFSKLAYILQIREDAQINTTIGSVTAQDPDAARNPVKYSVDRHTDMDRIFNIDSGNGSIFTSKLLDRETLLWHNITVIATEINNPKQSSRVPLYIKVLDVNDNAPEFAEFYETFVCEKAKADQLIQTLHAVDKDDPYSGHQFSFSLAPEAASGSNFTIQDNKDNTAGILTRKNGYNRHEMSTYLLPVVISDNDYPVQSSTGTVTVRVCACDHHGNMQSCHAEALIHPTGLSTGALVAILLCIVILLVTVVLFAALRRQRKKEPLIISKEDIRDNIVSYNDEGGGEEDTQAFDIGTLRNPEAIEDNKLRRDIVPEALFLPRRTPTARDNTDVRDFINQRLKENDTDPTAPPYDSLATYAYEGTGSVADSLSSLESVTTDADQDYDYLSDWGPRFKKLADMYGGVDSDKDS

T3: human CDH6 with EC2 removed, on HEK293T cells (HEK293T-hCDH6-EC2 deletion) (human, UniProt P55285 54-790)
T3 construct: Signal peptide not removed here
T3 sequence: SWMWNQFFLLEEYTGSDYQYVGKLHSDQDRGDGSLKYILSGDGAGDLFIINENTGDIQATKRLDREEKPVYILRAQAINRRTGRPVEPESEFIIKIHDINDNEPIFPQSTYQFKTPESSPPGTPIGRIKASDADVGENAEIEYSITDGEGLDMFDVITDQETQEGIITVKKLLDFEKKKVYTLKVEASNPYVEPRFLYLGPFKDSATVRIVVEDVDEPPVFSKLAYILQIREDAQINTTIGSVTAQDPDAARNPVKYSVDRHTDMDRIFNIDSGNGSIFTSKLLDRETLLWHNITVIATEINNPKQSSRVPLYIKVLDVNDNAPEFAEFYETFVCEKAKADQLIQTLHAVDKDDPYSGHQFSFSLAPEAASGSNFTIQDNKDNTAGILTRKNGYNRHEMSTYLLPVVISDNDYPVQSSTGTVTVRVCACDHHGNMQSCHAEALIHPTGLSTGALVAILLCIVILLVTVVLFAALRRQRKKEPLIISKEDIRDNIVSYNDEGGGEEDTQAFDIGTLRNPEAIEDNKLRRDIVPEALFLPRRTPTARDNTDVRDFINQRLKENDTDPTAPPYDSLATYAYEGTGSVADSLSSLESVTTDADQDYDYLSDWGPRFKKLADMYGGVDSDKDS


Key:
[1] = biological target: T1, human CDH6 on tumor cells (OVCAR3 …); assay: FACS, OVCAR3 cells, 4° C. arm of endocytosis assay, antibody diluted to 10 µg/mL
Method: OVCAR3 cells were cultured until a confluence of 90% was reached, the medium was removed by pipetting, the cells were washed once with PBS, and then treated with an enzyme-free cell dissociation solution (Versene, purchased from Gibco, Cat. No. 15040-066) and the cells were collected. The cells were washed once with PBS, counted, resuspended to 2×10⁶ cells/mL in an FACS buffer (PBS+2% FBS), and then added to two 96-well plates at 50 μL/well. The chimeric antibodies were diluted with FACS buffer (PBS+2% FBS) to 10 μg/mL and separately added to the two 96-well plates at 50 μL/well, and the plates were incubated at 4° C. for 1 h. After the cells were washed 3 times with PBS, the cells were resuspended in an FACS buffer. One 96-well plate was incubated at 4° C. for 1 h, and the other 96-well plate was incubated at 37° C. for 1 h. […] After the plates were centrifuged and washed 2 times with PBS, the cells were resuspended in an FACS buffer. The mean fluorescence intensity (MFI) was measured using FACS Canton II (BD). The chimeric antibodies tested all had good endocytic activity.

[2] = biological target: T2, human CDH6 with EC1 removed, on HEK293T …; assay: FACS, HEK293T-hCDH6-EC1 deletion cells
[3] = biological target: T3, human CDH6 with EC2 removed, on HEK293T …; assay: FACS, HEK293T-hCDH6-EC2 deletion cells

Binder | MFI_4° C. [1] [MFI] | Max MFI [2] [MFI] | Max MFI [3] [MFI]
CHI-CDH6-5 (antibody, human IgG1, kappa, V domains shown, also called CH1-CDH6-5; chimeric antibody of murine CDH6-5) VH: QVQLQQSGAELVRPGTSVKMSCKAAEYTFTNYWIGWVKQRPGHGLEWIGDLYPGGDHANYNEKFEGKATLTADTSSSTAYMQLSSLTSEDSAIYYCARGMLTTGFDSWGQGTTLTVSS VL: DIVMSQSPSSLAVSAGEKVTMSCKSSQSLFNSRTRKNYLAWYQQKPGQSPKLLIYWASTRESGVPDRFTGSGSGTDFTLTISSVQAEDLAVYYCKQSYYLRTFGGGTKLEIKR | 8810 | 112 | 343
CHI-CDH6-4 (antibody, human IgG1, kappa, V domains shown, also called CH1-CDH6-4; chimeric antibody of murine CDH6-4) VH: QVQLQQSGPELVKPGASVKISCKASGYAFSNFWMNWVKQRPGKGLEWIGWIYPGDGDTNYNGKFKDKATLTADKSSSTAYIQLSSLTSEDSAVYFCARLYDAWGFFDYWGQGTTLTVSS VL: QIVLTQSPAIMSASPGQKVTITCSASSSVNYMHWYQQKLGSSPKLWIYDKSKLAPGVPARFSGSGSGTSYSLTISSMEAEDAASYFCHQWSSYPPMTFGGGTKLEIKR | 9520 | 10200 | 75
CHI-CDH6-2 (antibody, human IgG1, kappa, V domains shown, also called chimeric antibody of murine CDH6-2) VH: EVQLQQSGPELVKPGASVRISCKASGYTFTDYYMNWVKQSHGKSLEWIGDIDPNNANTTYNQKFKGKATLTVDKSSSTAYMELRSLTSEDSAVYSCASFGYDVEWFGYWGQGTLVTVSA VL: QIVLTQSPALMSASPGEKVTMTCSASSSVSYMYWYQQKPRSSPKPWIYLTSNLASGVPARFSGSGSGTSYSLTISSMEAEDAATYYCQQWSSNPFTFGSGTKLEIKR | 11100 | – | –
CHI-CDH6-3 (antibody, human IgG1, kappa, V domains shown, also called CH1-CDH6-3; chimeric antibody of murine CDH6-3) VH: QVQLQQPGAELVKPGASVKLSCKASGYTFTSYWIHWVKQRPGQGLEWIGEINPSNGVTNCNENFKSKATLTVDKSSSTAYMQLSSLTSEDSAVYYCTIPNLLWWYFDVWGAGTTVTVSS VL: DIQMTQSPASLSVSVGETVTITCRASENIYSNLAWYQQKQGKSPQLLVYEATNLADGVPSRFSGSGSGTQYSLKINSLQSEDFGSYYCQHFWGTLWTFGGGTKLEIKR | 9280 | 11100 | 7550
CHI-CDH6-6 (antibody, human IgG1, kappa, V domains shown, also called CHI-hCDH6-6; chimeric antibody of murine CDH6-6) VH: EVQLQQSGPELVKPGDSVKMSCKASGYTFTDYYMAWVRQSHRKSLEWIGYIFPNSGGTDYSQKFKGKATLTVDKSSSTVYMELHSLTSEDSAVYYCARELGADYGDYYAMDHWGQGTSVSVSS VL: DIQMTQSPASLSASVGETVTITCRASENIDSYLAWYQQKQGKSPQLLVYSATLLADGVPSRFSGSGSGTQYSLKINSLKSEDVARYYCQHYYRTPPTFGSGTKLEIKR | 9930 | – | –
CHI-CDH6-7 (antibody, human IgG1, kappa, V domains shown, also called CH1-CDH6-7; chimeric antibody of murine CDH6-7) VH: EVKLVESGGGLVKPGGSLKVSCAASGFTFSDHGMAWVRQAPGKGPEWVAFISNLAYSIYYADTVTGRFTISRENAKNTLYLEMSSLRSEDTAMYYCARVYVKWYFDVWGAGTTVTVSS VL: DIQMTQSPASLSASVGETVTITCRASENIDSYLAWYQQKQGKSPQLLVFAATLLADGVPSRFSGSGSGTQYSLKINSLQSEDVARYYCQHYYSTPLTFGAGTKLELKR | 5580 | 88 | 13000
CHI-CDH6-8 (antibody, human IgG1, kappa, V domains shown, also called chimeric antibody of murine CDH6-8) VH: EVQLQQSGPELVKPGDSVKMSCKASGYTFTDYYMAWIKQNHGKSLEWIGYIYPNNGGTDYNQKFRGKATLTVDKSSSAAYMELHSLTSEDSAVYYCAREIGTLYGDYYAMDYWGQGTSVTVSS VL: DIQMTQSPASLSASVGETVTITCRASENIDSYLAWYQQKQGKSPQLLVYTATLLADGVPSRFSGSGSGTQYSLKINSLQSEDVARYYCQHYYSTPPTFGSGTKLEIKR | 10100 | – | –
CHI-CDH6-1 (antibody, human IgG1, kappa, V domains shown, also called CHI-hCDH6-1; CH1-CDH6-1) VH: QVQLQQPGAELVRPGSSVKLSCKASGYTFTNYWMHWVKQRPIEGLEWIGDIDPSHSETHYTQKFKDKATLTVDKSSSTAYMQLSSLTSEDSAVYYCARGDLGRFDYWGQGTTLTVSS VL: DIVLTQSPASLAVSLGQRATISCRASESVSIHGTHLMHWYQQKSGQPPKLLIYAASNLESGVPARFSGSGSETDFTFNIHPVEEEDAATYFCQQSFEDPWTFGGGTKLEIKR | 10600 | 84 | 51300

The remaining lines, values ahead:

MFI_4° C. [1] [MFI] | Max MFI [2] [MFI] | Max MFI [3] [MFI] | Binder
11000 | – | – | CHI-CDH6-9 (antibody, human IgG1, kappa, V domains shown, also called chimeric antibody of murine CDH6-9) VH: QVQLQQPGAELVKPGASVKLSCKASGYTFTGYWMHWVRQRPGQGLEWIGEINPNNGGTNCNEQFKNKATLTVDKSSSTAYMQLSSLTSEDSAVFYCTISFGNYLFFDVWGAGTTVTVSS VL: DIQMTQSPASLAASVGETITITCQASENIYFSLAWYQQKQGKSPQLLIYNANTLEDGVPSRFVGSGSGTQYSMKINSIQPEDTATYFCDQTYDFPWTFGGGTKLEIKR
10400 | – | – | CHI-CDH6-11 (antibody, human IgG1, kappa, V domains shown, also called chimeric antibody of murine CDH6-11) VH: QIQLQQSGPELVKPGASVRISCKASGYTFTDYYITWVKLRPGQGLEWIGWIYPGSVNIKYNEKFKGKATLTVDTSSSTAYMQLNSLTSEDSAVYFCARGGYSWFPYWGQGTLVTVSA VL: NIVMTQSPKSMSMSVGERVTLSCKASENVHTYVSWYQQKPEQSPKLLFYGASTRNTGVPDRFTGSGSATDFTLTISSVQAEDLADYYCGQSYSYPYTFGSGTKLEIKR
5970 | – | – | CHI-CDH6-13 (antibody, human IgG1, kappa, V domains shown, also called chimeric antibody of murine CDH6-13) VH: DVQLQESGPGLVKPSQSLSLTCSVTGYSITKDSYWNWIRQFPGSKLEWMGFISYDGSRHYNPSLKNRISITRDTSKNQFFLQLNSVTTEDTATYYCARRDYADYWGQGTTLTVSS VL: QIVLTQSPALMSAFPGEKVTMTCSATSSVSYIYWYQQKPRSSPKPWIYLTSNLASGVPARFSGSGSGTSYSLTINSLEAEDAATYYCQQWSSIPYTFGGGTKLEIKR
10100 | – | – | CHI-CDH6-10 (antibody, human IgG1, kappa, V domains shown, also called chimeric antibody of murine CDH6-10) VH: QVQLQQPGAELVKPGTSVKMSCKASGYTFTSDWIAWVKQRPGQGLEWIGDIYPGSGRTHNNEKFNFKATLTVDTSSNTAYMQLSSLTSEDSAVYFCARPMLGRFDYWGQGTTLTVSS VL: DIVLTQSPASLAVSLGQRATISCRASESVSIHGTHLMHWYQQKPGQPPKLLIYAASNLESGVPARFSGSGSETDFTLNIHPVEEEDAATYFCQQSFEDPFTFGSGTKLEIKR
